Laboratory results from patent publication US20150329626A1.

Tests used:
human Ang2 (human) [1] = biological target: human Ang2 (human) (UniProt O15123); assay: cell-based or functional assay
human Ang2 (human) [2] = biological target: human Ang2 (human) (UniProt O15123); assay: competition ELISA: blocking of biotinylated human Ang2 binding to plate-coated human Tie2-Fc
dog Ang2 (dog) = assay: Biacore SPR, 37 C, n = 3, antibody captured on Protein A
rabbit Ang2 (rabbit) = rabbit Ang2 (rabbit) (UniProt G1T9B3); assay: as above
Sequence of rabbit Ang2 (rabbit) (G1T9B3 entry or part of it): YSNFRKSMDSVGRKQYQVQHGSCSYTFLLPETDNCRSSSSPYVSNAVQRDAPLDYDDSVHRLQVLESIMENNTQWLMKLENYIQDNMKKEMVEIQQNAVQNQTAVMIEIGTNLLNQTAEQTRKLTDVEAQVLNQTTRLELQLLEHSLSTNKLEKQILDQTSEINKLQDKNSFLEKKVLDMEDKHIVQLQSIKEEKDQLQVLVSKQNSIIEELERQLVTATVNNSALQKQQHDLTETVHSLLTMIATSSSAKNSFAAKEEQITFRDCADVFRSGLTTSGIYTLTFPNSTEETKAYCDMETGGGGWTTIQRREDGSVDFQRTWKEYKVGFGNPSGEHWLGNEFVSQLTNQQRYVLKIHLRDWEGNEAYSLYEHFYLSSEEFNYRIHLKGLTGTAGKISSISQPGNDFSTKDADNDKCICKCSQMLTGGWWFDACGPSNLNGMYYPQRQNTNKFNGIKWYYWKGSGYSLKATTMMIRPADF

mouse Ang2 (mouse) = mouse Ang2 (mouse) (UniProt O35608); assay: as above
Sequence of mouse Ang2 (mouse) (O35608 19-496 limits assumed): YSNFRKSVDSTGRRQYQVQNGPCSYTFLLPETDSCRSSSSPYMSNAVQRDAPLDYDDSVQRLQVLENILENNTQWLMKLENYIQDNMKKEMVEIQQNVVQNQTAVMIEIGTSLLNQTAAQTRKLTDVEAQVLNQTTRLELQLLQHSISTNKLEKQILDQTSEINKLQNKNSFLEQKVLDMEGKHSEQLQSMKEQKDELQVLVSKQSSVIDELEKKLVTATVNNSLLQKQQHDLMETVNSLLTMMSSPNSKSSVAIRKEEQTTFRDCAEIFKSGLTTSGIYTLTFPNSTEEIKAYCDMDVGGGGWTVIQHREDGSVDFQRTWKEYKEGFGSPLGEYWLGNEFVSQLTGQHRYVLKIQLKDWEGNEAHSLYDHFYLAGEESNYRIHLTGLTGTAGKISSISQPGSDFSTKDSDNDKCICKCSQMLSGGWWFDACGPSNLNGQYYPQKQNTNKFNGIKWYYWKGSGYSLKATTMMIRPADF

human Ang2 (human) [3] = biological target: human Ang2 (human) (UniProt O15123); assay: as above
[4] = biological target: cyno Ang2 (cynomolgus monkey); assay: as above

Sequence of human Ang2 (human) (O15123 19-496 limits assumed): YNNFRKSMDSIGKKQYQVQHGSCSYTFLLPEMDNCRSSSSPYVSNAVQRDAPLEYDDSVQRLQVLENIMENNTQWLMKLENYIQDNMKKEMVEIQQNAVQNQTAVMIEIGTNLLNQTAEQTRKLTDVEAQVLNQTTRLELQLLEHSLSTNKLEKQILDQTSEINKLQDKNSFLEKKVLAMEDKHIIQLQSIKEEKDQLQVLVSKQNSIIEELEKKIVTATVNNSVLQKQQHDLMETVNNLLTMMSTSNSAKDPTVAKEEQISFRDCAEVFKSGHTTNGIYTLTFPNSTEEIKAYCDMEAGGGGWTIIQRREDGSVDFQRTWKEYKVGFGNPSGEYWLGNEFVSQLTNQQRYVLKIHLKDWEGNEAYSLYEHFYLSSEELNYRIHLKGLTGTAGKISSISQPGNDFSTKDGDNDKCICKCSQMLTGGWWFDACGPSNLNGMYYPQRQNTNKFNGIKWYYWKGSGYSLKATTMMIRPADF
Sequence of dog Ang2 (dog) (A0A8J8 19-495 limits assumed): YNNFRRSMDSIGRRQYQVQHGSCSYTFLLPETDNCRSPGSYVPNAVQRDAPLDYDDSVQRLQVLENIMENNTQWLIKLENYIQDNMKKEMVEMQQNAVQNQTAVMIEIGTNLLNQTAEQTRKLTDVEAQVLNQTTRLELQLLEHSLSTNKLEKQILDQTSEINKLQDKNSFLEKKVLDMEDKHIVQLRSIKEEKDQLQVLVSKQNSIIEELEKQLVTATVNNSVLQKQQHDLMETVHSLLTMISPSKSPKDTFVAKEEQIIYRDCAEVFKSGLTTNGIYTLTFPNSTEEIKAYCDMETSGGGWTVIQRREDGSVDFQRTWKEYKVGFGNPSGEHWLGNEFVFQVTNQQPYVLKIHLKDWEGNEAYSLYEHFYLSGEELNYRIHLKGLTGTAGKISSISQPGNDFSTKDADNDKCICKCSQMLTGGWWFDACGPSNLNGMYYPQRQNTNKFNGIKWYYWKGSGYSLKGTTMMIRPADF

inhibition of human Ang2 induced phospho-Tie2 in CHO-Tie2 cells (IC50) (human Ang2 (human) [1]): 0.773 nM
IC50 (human Ang2 (human) [2]): 0.027 nM
Kd (dog Ang2 (dog)): 0.14 nM
koff (dog Ang2 (dog)): 0.00011 s⁻¹
kon (dog Ang2 (dog)): 790000 M⁻¹ s⁻¹
Kd (rabbit Ang2 (rabbit)): 0.21 nM
koff (rabbit Ang2 (rabbit)): 0.00015 s⁻¹
kon (rabbit Ang2 (rabbit)): 730000 M⁻¹ s⁻¹
Kd (mouse Ang2 (mouse)): 0.109 nM
koff (mouse Ang2 (mouse)): 0.00011 s⁻¹
kon (mouse Ang2 (mouse)): 1e+06 M⁻¹ s⁻¹
Kd (human Ang2 (human) [3]): 0.08 nM
koff (human Ang2 (human) [3]): 7e-05 s⁻¹
kon (human Ang2 (human) [3]): 1e+06 M⁻¹ s⁻¹
Kd [4]: 0.107 nM
koff [4]: 0.00029 s⁻¹
kon [4]: 2.7e+06 M⁻¹ s⁻¹
B1: Ang2 antibody with the same HCDRs and LCDRs as the scFv polypeptide portion of Compound F (antibody, V domains shown)
VH: QVQLVQSGAEVKKPGSSVKVSCKASGYSFTDYNMVWVRQAPGQCLEWMGYIDPYNGGTGYNQKFEGRVTITADESTSTAYMELSSLRSEDTAVYYCARTRDRYDVWYFDVWGQGTLVTVSS
VL: DIVMTQSPDSLAVSLGERATINCKASQDVYIAVAWYQQKPGQPPKLLIYWASTRDTGVPDRFSGSGSGTDFTLTISSLQAEDVAVYYCHQYSSYPPTFGCGTKVEIK
modifications: CDRs only; frameworks, constant regions missing
